T1: huCLL1-K244-Avi-Tev-His (human, UniProt Q5QGZ9 65-265)
T1 construct: extracellular domain
T1 sequence (looked up): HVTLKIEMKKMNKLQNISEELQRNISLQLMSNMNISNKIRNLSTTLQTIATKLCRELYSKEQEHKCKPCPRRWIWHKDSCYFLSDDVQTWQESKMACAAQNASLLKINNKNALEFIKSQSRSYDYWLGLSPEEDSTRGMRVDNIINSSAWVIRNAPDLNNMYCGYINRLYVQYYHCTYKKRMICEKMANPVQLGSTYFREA

T2: huCLL1-Q244-Avi-Tev-His (human, UniProt Q5QGZ9 65-265)
T2 construct: extracellular domain; also called CLL-1 K244Q
T2 sequence (looked up): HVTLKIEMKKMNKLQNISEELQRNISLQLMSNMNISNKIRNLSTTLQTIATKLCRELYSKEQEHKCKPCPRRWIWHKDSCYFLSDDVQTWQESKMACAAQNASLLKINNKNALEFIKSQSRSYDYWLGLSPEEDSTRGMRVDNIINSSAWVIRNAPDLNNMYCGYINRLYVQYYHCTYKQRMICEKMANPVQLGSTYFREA


Experiments:
[1] = target: T3, huCD33-G69-Fc recombinant protein (human, UniProt P20138 18-259); assay: BLI;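 further: scFvs from periplasmic extracts captured on biosensors via anti-V5 antibody, exposed to recombinant huCD33 variants for 2 min, 5 min dissociation, scored as binding, no binding or ambiguous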
T3 construct: extracellular domain; also called CD33 R69G
Protocol: (§1) Discovered scFvs were analyzed for binding to huCD33-R69-His or huCD33-G69-Fc recombinant proteins (for anti-CD33 scFvs; for CLL-1 scFvs, huCLL1-K244-Avi-Tev-His or huCLL1-Q244-Avi-Tev-His were used; for FLT3, huFLT3-T227-His or huFLT3-M227-Fc were used) using BLI on a ForteBio Octet HTX instrument. Streptavidin-coated biosensors were loaded with biotinylated anti-V5 tag monoclonal antibody for 5 min and were then quenched and blocked with 20 μM amine-PEG2-Biotin for 5 min. scFvs were captured on biosensors from scFv clone periplasmic extracts. huCD33 (or huCLL-1, or huFLT3) proteins were then associated with the captured scFvs for 2 minutes, followed by dissociation with buffer (1×HBST [10 mM HEPES pH 7.4, 150 mM NaCl, 0.05% Tween-20], 1 g/L BSA) for 5 minutes. […] Data was fitted with 1:1 Langmuir equation and off-rate values were reported.

[2] = target: T4, huCD33-G69 stably expressed on Jurkat cells (human, UniProt P20138 18-364); assay: FACS on cells;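 further: fixed Jurkat cells bearing either CD33 variant, barcoded by dye, exposed to myc-tagged scFv periplasmic extracts, detected with anti-myc PE antibody and read by flow cytometry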
T4 construct: whole, on cells; >200,000 receptors per cell; also called CD33 Mutant; CD33 R69G
Protocol: (§2) Jurkat cells were engineered to stably express either the huCD33-R69 or huCD33-G69 variant at >200,000 receptors per cell. Parental, huCD33-R69, and huCD33-G69 Jurkat cell lines were stained with differing levels of CellTrace Violet Cell Proliferation Kit (ThermoFisher, cat. #C34557) to barcode each cell line. Barcoded Jurkat cell lines were fixed with paraformaldehyde and incubated with myc-labeled scFv periplasmic extracts and a secondary anti-myc PE-conjugated monoclonal antibody. Appropriate positive and negative controls were used. Stained cells were analyzed by flow cytometry (CytoFLEX, Beckman Coulter, Inc.) and binding was assessed by change in PE mean fluorescence intensity (MFI) of the barcoded cell populations.

[3] = target: T5, huCD33-R69 stably expressed on Jurkat cells (human, UniProt P20138 18-364); assay: FACS on cells;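 further: fixed Jurkat cells bearing either CD33 variant, barcoded by dye, exposed to myc-tagged scFv periplasmic extracts, detected with anti-myc PE antibody and read by flow cytometry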
T5 construct: whole, on cells; >200,000 receptors per cell; also called CD33 WT; CD33^ARG69
Protocol: as §2

huCLL1-K244-Avi-Tev-His = target: T1, huCLL1-K244-Avi-Tev-His; assay: BLI
Protocol: as §1
(§3) Analogous methods were used to assess selectivity of binding of polypeptides to CLL-1 K244 or CLL-1 Q244.

huCLL1-Q244-Avi-Tev-His = target: T2, huCLL1-Q244-Avi-Tev-His; assay: BLI
Protocol: as §1, §3

T4 sequence (P20138 18-364 R69G): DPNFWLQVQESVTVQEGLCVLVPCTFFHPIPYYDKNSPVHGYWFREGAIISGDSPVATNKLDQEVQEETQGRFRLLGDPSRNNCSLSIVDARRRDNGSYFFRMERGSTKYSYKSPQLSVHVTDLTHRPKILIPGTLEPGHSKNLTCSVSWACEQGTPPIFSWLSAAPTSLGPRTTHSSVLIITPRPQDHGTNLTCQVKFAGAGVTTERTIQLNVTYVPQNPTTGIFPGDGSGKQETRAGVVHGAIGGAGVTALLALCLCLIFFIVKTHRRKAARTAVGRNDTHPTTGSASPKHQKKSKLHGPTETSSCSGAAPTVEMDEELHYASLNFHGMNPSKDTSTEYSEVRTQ
T3 sequence (P20138 18-259 R69G): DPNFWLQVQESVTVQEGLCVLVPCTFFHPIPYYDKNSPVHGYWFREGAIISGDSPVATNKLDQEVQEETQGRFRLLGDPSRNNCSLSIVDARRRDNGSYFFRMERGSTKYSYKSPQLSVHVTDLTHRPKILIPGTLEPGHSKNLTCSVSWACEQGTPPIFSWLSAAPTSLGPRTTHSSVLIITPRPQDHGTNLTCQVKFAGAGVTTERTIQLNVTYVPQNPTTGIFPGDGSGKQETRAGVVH
T5 sequence (P20138 18-364): as the sequence (P20138 18-364 R69G) above, with G52R counted along it

Binder	binding result [1]	geometric mean MFI fold change over Jurkat parental [2]	geometric mean MFI fold change over Jurkat parental [3]	binding result (huCLL1-K244-Avi-Tev-His)	binding result (huCLL1-Q244-Avi-Tev-His)
Polypeptide No. 10 (scFv, V domains shown, scFv) VH: QVQLVQSGAEVKKPGASVKVSCKASGDTFTTYAISWVRQAPGQGLEWMGWINPNSGVATYANKFQGRVTMTRDTSTSTVYMELSSLRSEDTAVYYCAREGIVGATDAFDIWGQGTMVTVSS VL: not shown	no binding	< 2 fold	2 to 10 fold	–	–
Polypeptide No. 8 (scFv, V domains shown, scFv) VH: not shown VL: DIQMTQSPSSLSASVGDRVTITCRASQSVSSFLNWYQQKPGKAPKLLIYAASSLQSGVPSRFSGSGSGTDFTLTISSLQPEDFATYYCQQSYTTPLTFGQGTKVEIKR	no binding	< 2 fold	10 to 30 fold	–	–
Polypeptide No. 48 (scFv, V domains shown, scFv) VH: EVQLLESGGGLVQPGGSLRLSCAASGFNFDDYAMHWVRQAPGKGLEWVSVIYSGGSTYYADSVKGRFTISRDNSKNTLYLQMNSLRAEDTAVYYCTRHDFDYWGQGTLVTVSS VL: DIQMTQSPSSLSASVGDRVTITCRASQSISTYVNWYQQKPGKAPKLLIYAASSLQSGVPSRFSGSGSGTDFTLTISSLQPEDFATYYCQQDYSYPYTFGQGTKVEIKR	–	–	–	binds	no binding
Polypeptide No. 11 (scFv, V domains shown, scFv) VH: QVQLVQSGAEVKKPGASVKVSCKASGDTFTNHYMHWVRQAPGQGLEWMGWINPNSGGTNYAQKFQGRVTMTRDTSTSTVYMELSSLRSEDTAVYYCARDLVPAAVGGYFDYWGQGTLVTVSS VL: DIQMTQSPSSLSASVGDRVTITCRASQSLGSWLAWYQQKPGKAPKLLIYAASSLQSGVPSRFSGSGSGTDFTLTISSLQPEDFATYYCQQANSFPLTFGQGTKVEIKR	no binding	< 2 fold	2 to 10 fold	–	–
Polypeptide No. 49 (scFv, V domains shown, scFv) VH: EVQLVESGGGLVKPGGSLRLSCAASGFTFSDYALHWVRQAPGKGLEWVSLISGDGGSTYYADSVKGRFTISRDDSKNTLYLQMNSLKTEDTAVYYCARDLGGERSYWGQGTLVTVSS VL: DIQMTQSPSSLSASVGDRVTITCRASQSISTWLAWYQQKPGKAPKLLIYAASTLQSGVPSRFSGSGSGTDFTLTISSLQPEDFATYYCLQDYSYPPTFGQGTKVEIKR	–	–	–	binds	no binding
Polypeptide No. 6 (scFv, V domains shown, scFv) VH: QVQLVQSGAEVKKPGASVKVSCKASGYTFTAYYTHWVRQAPGQGLEWMGWMNPNSGHTSYAQKFQGRVTMTRDTSTSTVYMELSSLRSEDTAVYYCAREAYDSFDYWGQGTLVTVSS VL: DIQMTQSPSSLSASVGDRVTITCRASQSISSYLNWYQQKPGKAPKLLIYEASTLETGVPSRFSGSGSGTDFTLTISSLQPEDFATYYCQQANSFPFTFGPGTKVDIKR	no binding	< 2 fold	> 30 fold	–	–
Polypeptide No. 37 (scFv, V domains shown, scFv) VH: QVQLVQSGAEVKKPGASVKVSCKASGYTFTGYYLHWVRQAPGQGLEWMGVISPSGGGTSYAQKFQGRVTMTRDTSTSTVYMELSSLRSEDTAVYYCARAGFGEGVFRHWGQGTLVTVSS VL: not shown	–	2 to 10 fold	< 2 fold	–	–
Polypeptide No. 7 (scFv, V domains shown, scFv) VH: QVQLVQSGAEVKKPGASVKVSCKASGYTFTDYYMHWVRQAPGQGLEWMGWINPNSGGTNYAQKFQGRVTMTRDTSTSTVYMELSSLRSEDTAVYYCARDSRIAVAASSFDYWGQGTLVTVSS VL: DIQMTQSPSSLSASVGDRVTITCRASRGINNWLTWYQQKPGKAPKLLIYGASSLQSGVPSRFSGSGSGTDFTLTISSLQPEDFATYYCQQSYRIPYTFGQGTKLEIKR	no binding	< 2 fold	10 to 30 fold	–	–
Polypeptide No. 20 (scFv, V domains shown, scFv) VH: QVQLVQSGAEVKKPGASVKVSCKASGYMFTGYYIHWVRQAPGQGLEWMGWINPNSGGTNYAQKFQGRVTMTRDTSTSTVYMELSSLRSEDTAVYYCAKDRFGSGNYGYMDVWGKGTTVTVSS VL: DIQMTQSPSSLSASVGDRVTITCRASQSIDRWLAWYQQKPGKAPKLLIYGASSLQSGVPSRFSGSGSGTDFTLTISSLQPEDFATYYCQQSYSTPWTFGQGTRLEIKR	–	< 2 fold	10 to 30 fold	–	–
Polypeptide No. 4 (scFv, V domains shown, scFv) VH: QVQLVQSGAEVKKPGASVKVSCKASGGTFSSYAISWVRQAPGQGLEWMGWINPNSGNTGYAQKFQGRVTMTRDTSTSTVYMELSSLRSEDTAVYYCAREHGDMDVWGQGTTVTVSS VL: EIVMTQSPATLSVSPGERATLSCRASQNINSDLAWYQQKPGQAPRLLIYGASTRATGIPARFSGSGSGTEFTLTISSLQSEDFAVYYCQQYDSLPFTFGPGTKVDIKR	no binding	< 2 fold	> 30 fold	–	–
Polypeptide No. 24 (scFv, V domains shown, scFv) VH: QVQLVQSGAEVKKPGSSVKVSCKASGYSFTSYGISWVRQAPGQGLEWLGWISAYNGNTNYGQSLQGRVTITADESTSTAYMELSSLRSEDTAVYYCARARGAGTFFDYWGQGTLVTVSS VL: DIVMTQSPLSLPVTPGEPASISCRSSQSLLHSNGYNYLDWYLQKPGQSPQLLIYDATNLPTGVPDRFSGSGSGTDFTLKISRVEAEDVGVYYCMQALQTPFTFGQGTKLEIKR	–	< 2 fold	> 30 fold	–	–
Polypeptide No. 47 (scFv, V domains shown, scFv) VH: EVQLLESGGGLVQPGGSLRLSCAASGFTFDEYAMHWVRQAPGKGLEWVSAIGAGGSTYYADSVKGRFTISRDNSKNTLYLQMNSLRAEDTAVYYCASSLGPELRGVDYYYYGMDVWGQGTTVTVSS VL: DIVMTQSPLSLPVTPGEPASISCRSSQSLLHSNGYNYLDWYLQKPGQSPQLLIYAASSLQSGVPDRFSGSGSGTDFTLKISRVEAEDVGVYYCMQGIQWPWTFGQGTKVEIKR	–	–	–	binds	no binding
Polypeptide No. 9 (scFv, V domains shown, scFv) VH: QVQLVQSGAEVKKPGSSVKVSCKASGGTFSSDAINWVRQAPGQGLEWMGGFDPEDGETIYAQKFQGRVTITADESTSTAYMELSSLRSEDTAVYYCARGPSGYDFEFDYWGQGTLVTVSS VL: DIQMTQSPSSLSASVGDRVTITCRSSRNISHWLAWYQQKPGKAPKLLIYKASSLESGVPSRFSGSGSGTDFTLTISSLQPEDFATYYCQQAISFPLTFGGGTKVEIKR	no binding	< 2 fold	2 to 10 fold	–	–
Polypeptide No. 5 (scFv, V domains shown, scFv) VH: QVQLVQSGAEVKKPGASVKVSCKASGNTFTSYGISWVRQAPGQGLEWMGWINPNSGGTKYAQKFQGRVTMTRDTSTSTVYMELSSLRSEDTAVYYCARESWFGELYYGMDVWGKGTTVTVSS VL: not shown	no binding	< 2 fold	> 30 fold	–	–
Polypeptide No. 12 (scFv, V domains shown, scFv) VH: EVQLLESGGGLVQPGGSLRLSCAASGFTFSSHWMSWVRQAPGKGLEWVSAISGSGGSTYYADSVKGRFTISRDNSKNTLYLQMNSLRAEDTAVYYCARDDNSGSQADWGQGTLVTVSS VL: DIQMTQSPSSLSASVGDRVTITCQASQDIDNYLNWYQQKPGKAPKLLIYDASNLETGVPSRFSGSGSGTDFTLTISSLQPEDFATYYCQQSYSTPLTFGGGTKLEIKR	no binding	< 2 fold	2 to 10 fold	–	–
